Assay results from paper doi:10.1101/364463 (bioRxiv, 2019).

Experiments:
Experiment in all cases: pull-down
GST-PI31-S168E = biological target: T1, GST-PI31-S168E (Drosophila, UniProt Q9V637 1-270, S168E)
T1 sequence: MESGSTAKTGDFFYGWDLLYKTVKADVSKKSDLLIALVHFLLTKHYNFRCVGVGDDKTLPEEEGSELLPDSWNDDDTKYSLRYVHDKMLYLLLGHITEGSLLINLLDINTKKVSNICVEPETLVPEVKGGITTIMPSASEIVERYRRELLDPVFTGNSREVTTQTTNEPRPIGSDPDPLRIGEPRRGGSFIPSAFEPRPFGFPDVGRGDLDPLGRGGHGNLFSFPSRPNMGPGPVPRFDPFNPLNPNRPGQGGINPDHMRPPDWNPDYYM

GST-PI31-S168D = biological target: T2, GST-PI31-S168D (Drosophila, UniProt Q9V637 1-270, S168D)
T2 sequence: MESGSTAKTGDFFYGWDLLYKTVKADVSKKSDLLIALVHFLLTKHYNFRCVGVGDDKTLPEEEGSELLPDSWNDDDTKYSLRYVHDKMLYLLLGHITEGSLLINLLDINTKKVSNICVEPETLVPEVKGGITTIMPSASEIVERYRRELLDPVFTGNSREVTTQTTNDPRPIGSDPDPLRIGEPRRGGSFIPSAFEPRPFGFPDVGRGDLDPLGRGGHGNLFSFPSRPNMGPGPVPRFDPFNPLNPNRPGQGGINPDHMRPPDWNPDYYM

GST-PI31-WT = biological target: T3, GST-PI31-WT (Drosophila, UniProt Q9V637 1-270)
T3 sequence: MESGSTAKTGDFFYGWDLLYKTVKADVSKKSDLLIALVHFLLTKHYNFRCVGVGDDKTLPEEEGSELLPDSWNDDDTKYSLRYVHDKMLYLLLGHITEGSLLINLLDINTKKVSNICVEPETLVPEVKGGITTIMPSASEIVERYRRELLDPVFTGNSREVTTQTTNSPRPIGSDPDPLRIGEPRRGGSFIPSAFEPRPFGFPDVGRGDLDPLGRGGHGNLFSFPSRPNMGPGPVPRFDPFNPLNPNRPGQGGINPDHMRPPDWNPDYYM

Measured: binding result

B1: FLAG-dDYNLL1 (recombinant, E. coli) (natural protein)
chain: MSDRKAVIKNADMSEEMQQDAVDCATQALEKYNIEKDIAAYIKKEFDKKYNPTWHCIVGRNFGSYVTHETRHFIYFYLGQVAILLFKSG
binds: all assays above
